Reference: patent US20100330095A1 (U3 PHARMA, published 2010)
Positions count from the first letter of the chain named. Values belong to the binder of their own block, whether it stands above or below them.

Columns and labels:
human Sky = target: T1, human Sky (human, UniProt Q06418 41-890); experiment: flow cytometry, transiently transfected HEK293T cells
T1 construct: whole, on cells; Transiently expressed on HEK293T cells (pcDNA3-hSky); also called hSky
T1 sequence (looked up): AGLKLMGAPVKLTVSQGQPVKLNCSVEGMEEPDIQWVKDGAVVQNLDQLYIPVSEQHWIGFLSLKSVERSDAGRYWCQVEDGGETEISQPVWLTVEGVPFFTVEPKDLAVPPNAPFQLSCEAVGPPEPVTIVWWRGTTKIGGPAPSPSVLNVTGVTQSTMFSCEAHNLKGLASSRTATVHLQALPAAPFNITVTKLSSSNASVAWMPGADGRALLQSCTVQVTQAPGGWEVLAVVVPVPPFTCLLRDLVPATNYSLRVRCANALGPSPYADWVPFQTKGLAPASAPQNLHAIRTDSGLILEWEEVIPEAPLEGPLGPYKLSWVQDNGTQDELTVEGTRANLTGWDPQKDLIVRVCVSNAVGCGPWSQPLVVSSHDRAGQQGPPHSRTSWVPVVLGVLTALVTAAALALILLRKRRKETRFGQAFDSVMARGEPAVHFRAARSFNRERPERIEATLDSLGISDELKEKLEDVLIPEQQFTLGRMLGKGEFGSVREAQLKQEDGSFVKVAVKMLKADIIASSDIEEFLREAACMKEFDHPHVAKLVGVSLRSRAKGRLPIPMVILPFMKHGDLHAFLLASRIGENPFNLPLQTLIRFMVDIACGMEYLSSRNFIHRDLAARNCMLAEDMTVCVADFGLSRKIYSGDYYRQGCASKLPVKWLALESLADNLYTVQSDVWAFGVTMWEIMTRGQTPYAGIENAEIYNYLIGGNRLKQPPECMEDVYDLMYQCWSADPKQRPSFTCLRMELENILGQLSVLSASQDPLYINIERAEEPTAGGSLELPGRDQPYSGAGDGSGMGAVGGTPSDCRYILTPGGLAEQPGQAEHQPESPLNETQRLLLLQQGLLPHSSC
Method: (§1) FIG. 3. Flow cytometry analysis of cross-reactivity of rat-anti AXL antibodies with mouse and cynomolgus monkey AXL as well as human Mer and Sky. HEK293T fibroblasts were transiently transfected with pcDNA3, pcDNA3-hAXL, pcDNA3 mAXL, pcDNA3-cyAXL, pcDNA3-hMer, or pcDNA3-hSky. […] See text for details.
(§2) For FACS analysis, 2×10⁵ cells were harvested with 10 mM EDTA in PBS, washed once with FACS buffer (PBS, 3% FCS, 0.4% azide) and seeded on a 96 well round bottom plate. […] After incubation on ice for 1 h, cells were washed twice with chilled FACS buffer and resuspended with PE-conjugated donkey anti-rat (Jackson) secondary antibody diluted 1:50 in FACS buffer (100 μl/well) or PE-conjugated donkey anti-mouse secondary antibody for control. Protected from light, cells were incubated on ice for 30 min, washed twice with FACS buffer and analyzed using an Epics XL-MCL flow cytometer (Beckman Coulter).

mouse AXL = target: T2, mouse AXL (mouse, UniProt Q00993 19-888); experiment: as above
T2 construct: whole, on cells; Transiently expressed on HEK293T cells (pcDNA3-mAXL); also called mAXL
T2 sequence (looked up): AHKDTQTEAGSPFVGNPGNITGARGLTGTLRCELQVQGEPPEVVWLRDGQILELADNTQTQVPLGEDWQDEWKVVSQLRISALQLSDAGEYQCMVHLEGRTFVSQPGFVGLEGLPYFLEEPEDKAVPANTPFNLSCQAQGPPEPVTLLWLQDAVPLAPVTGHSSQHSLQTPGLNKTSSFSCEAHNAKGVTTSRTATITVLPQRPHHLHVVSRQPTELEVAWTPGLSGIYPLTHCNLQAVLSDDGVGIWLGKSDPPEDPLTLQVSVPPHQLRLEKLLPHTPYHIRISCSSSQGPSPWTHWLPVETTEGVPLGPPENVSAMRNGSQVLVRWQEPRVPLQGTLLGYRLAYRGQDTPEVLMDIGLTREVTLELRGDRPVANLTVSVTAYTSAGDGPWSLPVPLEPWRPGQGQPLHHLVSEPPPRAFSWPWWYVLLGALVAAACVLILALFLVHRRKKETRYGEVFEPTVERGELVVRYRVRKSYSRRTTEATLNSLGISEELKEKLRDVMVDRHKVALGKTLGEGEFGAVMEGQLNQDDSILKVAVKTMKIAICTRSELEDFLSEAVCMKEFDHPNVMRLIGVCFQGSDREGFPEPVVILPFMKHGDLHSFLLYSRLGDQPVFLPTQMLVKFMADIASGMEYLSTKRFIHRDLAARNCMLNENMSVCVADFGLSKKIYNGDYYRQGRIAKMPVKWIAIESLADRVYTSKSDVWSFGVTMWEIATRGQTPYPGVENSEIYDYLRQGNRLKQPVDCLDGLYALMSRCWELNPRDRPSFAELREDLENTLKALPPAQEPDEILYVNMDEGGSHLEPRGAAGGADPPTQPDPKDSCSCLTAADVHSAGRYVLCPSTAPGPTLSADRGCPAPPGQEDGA
Method: as §1, §2

binding result (human Sky): no binding (tested: 10 µg/ml) | binding result (mouse AXL): no binding (tested: 10 µg/ml)
B1: III 11D5 (antibody, rat IgG2a, V domains shown)
VH: EVQLQESGPGLVKPSQSLSLTCSVTGYSITSNYWGWIRKFPGNKMEWIGHITNSGNTTYNPSLKSRISISRDTSRNQFFLQLNSVTTEDTATYYCAKGAFDYWGQGVMVTVSS
VL: DIQMTQSPSSMSTSLGDRVTITCRASQDIGNYLSWFQQKVGKSPRRMIYGAIKLAVGVPSRFSGSRSGSDYSLTISSLESEDMAIYYCLQYIQFPLTFGSGTKLELK
notes: rat hybridoma antibody, antagonistic

binding result (human Sky): no binding (tested: 10 µg/ml) | binding result (mouse AXL): no binding (tested: 10 µg/ml)
B2: I 11B7 (antibody, V domains shown)
VH: EVQLQESGPGLVKPSQSLSLTCSVTGYSITSNYWGWIRKFPGDKMEWMGYITYSGSTSYNPSLKSRISITRDTSKNQFFLQLNSVTSEDTATYYCAITTFYYWGQGVMVTVSS
VL: DIQMTQAPSSLPASLGDRVTITCRASQDIGNYLRWFQQKPGKSPRLMISGATNLAAGVPSRFSGSRSGSDYSLTISSLESEDMADYYCLQSKESPWTFGGGTKLELK
notes: as for B1

binding result (human Sky): no binding (tested: 10 µg/ml) | binding result (mouse AXL): no binding (tested: 10 µg/ml)
B3: I 10D12 (antibody, V domains shown)
VH: EVQLQESGPGLVKPSQSLSLTCSVTGYSITSNYWGWIRKFPGNKMEWMGYITNSGGTAYNPSLKSRISITRDTSKNQFFLQLNSVIPEDSATYFCSRTPWDWGQGVMVTVSS
VL: B2 VL with T22A, L73R
notes: rat hybridoma antibody, antagonistic; subclass G1
